From the supplement of paper PMC12764529
± gives the half width of the 95% confidence interval.

Columns and labels:
[1] = folding stability dG unfold (combined trypsin and chymotrypsin); higher = more stable
How it was run: (§1)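 Sequencing followed digestion of designed mini-proteins with trypsin and chymotrypsin, each at 11 concentrations in threefold dilutions together with a no-protease condition. The mini-proteins were under 80 residues, had no cysteine, sat in a PA-tagged cDNA display construct, and were kept only if AlphaFold2 dimer inter-PAE was above 15. From the counts, Bayesian fitting gave K50, and unfolding free energy was derived against a sequence-predicted unfolded-state K50 and a shared folded-state K50, per protease or combined.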

[2] = folding stability dG unfold from trypsin proteolysis; higher = more stable
How it was run: as §1

[3] = folding stability dG unfold from chymotrypsin proteolysis; higher = more stable
How it was run: as §1

## SAGGKITITVEYNKETNTVRIKITTEDGKEKELEINLENLTEEELKKLAEEIAKKLNPEKIKKVEIYPSAGG [r13_267_TrROS_Hall]
[1]
  folding stability dG unfold: 2.33 ± 0.13 kcal/mol
[2]
  folding stability dG unfold: 1.69 ± 0.11 kcal/mol
[3]
  folding stability dG unfold: 2.69 ± 0.12 kcal/mol

## SAGRITIDPEDWRIEVKPPNGKKREISPDKIQELLREQKQKGKPPTAEEIAEKIMDEFPGYEVEIHPRSAGG [r19_46_TrROS]
[1]
  folding stability dG unfold: 1.06 ± 0.3 kcal/mol
[2]
  folding stability dG unfold: 0.894 ± 0.1 kcal/mol
[3]
  folding stability dG unfold: 1.22 ± 0.073 kcal/mol

## SAGGSAGGKLVVLLVRRPDGSLALRVTDAENPAEALEAARRNGMEALPLEVDDLEEFLEAIGLGSAGGSAGG [r6_495_TrMRF]
[1]
  folding stability dG unfold: 2.17 ± 0.13 kcal/mol
[2]
  folding stability dG unfold: 0.875 ± 0.076 kcal/mol
[3]
  folding stability dG unfold: 2.65 ± 0.09 kcal/mol

## SAGGSAGGSMTIKITLPEEGEKVKITIFVNGEEKEIEIEPGEEITIELPENVKNAIIIIEKEPSAGGSAGGS [r12_729_TrROS_Hall]
[1]
  folding stability dG unfold: 2.54 ± 0.11 kcal/mol
[2]
  folding stability dG unfold: 2.49 ± 0.1 kcal/mol
[3]
  folding stability dG unfold: 2.48 ± 0.058 kcal/mol

## SAGSMEELIANGGTISEERTLPGGEKVFTTTTLTYAPDGTPVINTETTVTTTPPDGTTTPSTSTSTVPLSAG [r5_24_JUSTAS]
[1]
  folding stability dG unfold: 1.04 ± 0.035 kcal/mol
[2]
  folding stability dG unfold: 1.04 ± 0.038 kcal/mol
[3]
  folding stability dG unfold: 0.957 ± 0.058 kcal/mol

## SAKKKVVVEIEIPKEDMSKEEVKEALREAAKELGLELPEEEIEKLVEEARKKGLSIEEVLRKLKEEGLLSAG [r14_364_TrROS_Hall]
[1]
  folding stability dG unfold: 1.12 ± 0.12 kcal/mol
[2]
  folding stability dG unfold: 0.693 ± 0.056 kcal/mol
[3]
  folding stability dG unfold: 1.47 ± 0.054 kcal/mol

## SAGGSASSVPVELEYETPGDPSSSSYTLEPVDLPPELASRIVEVTAKVEKEGGKLKITATVTLTDLSAGGSA [r15_321_JUSTAS]
[1]
  folding stability dG unfold: 0.48 ± 0.2 kcal/mol
[2]
  folding stability dG unfold: 0.723 ± 0.12 kcal/mol
[3]
  folding stability dG unfold: 0.137 ± 0.25 kcal/mol

## SALPALLEAAEAGESGTFIPIVADPEAAAVLRAVLERLGFTLVSEEPVPAGARPVFVGVYYFDPVSGRNRSA [r9_498_TrMRF]
[1]
  folding stability dG unfold: 1.84 ± 0.091 kcal/mol
[2]
  folding stability dG unfold: 1.1 ± 0.047 kcal/mol
[3]
  folding stability dG unfold: 2.38 ± 0.17 kcal/mol

## SAGGSAGGSAMQRVEIYFPGLKKVFTKPFKSLEEVEEAVKELLGPEYNPEKVEIKILPENAESAGGSAGGSA [r18_350_TrMRF]
[1]
  folding stability dG unfold: 1.27 ± 0.17 kcal/mol
[2]
  folding stability dG unfold: 0.912 ± 0.054 kcal/mol
[3]
  folding stability dG unfold: 1.5 ± 0.14 kcal/mol

## KIWIPNASWSQIKNIIRNAIKDGKERTIWIPMDPNMKPNIIDYLKDLPGIKDVEPYPNGWVKIEIDKAELKS [r1_324_TrROS]
[1]
  folding stability dG unfold: 2.81 ± 0.18 kcal/mol
[2]
  folding stability dG unfold: 2 ± 0.059 kcal/mol
[3]
  folding stability dG unfold: 3.23 ± 0.076 kcal/mol

## SAGGSAGGNIKVKVPYERHPDYYYMTVTIYDPGDDKKLELSYMFPPGTKMPAEEWARDIVKDILSAGGSAGG [r6_234_TrROS]
[1]
  folding stability dG unfold: 1.13 ± 0.13 kcal/mol
[2]
  folding stability dG unfold: 0.789 ± 0.091 kcal/mol
[3]
  folding stability dG unfold: 1.29 ± 0.1 kcal/mol

## SAGGSAGGSAGMTVTETPVLVRYPEDGSVRPFTLTTSPEPGTLTLDLPPAEWPPLEITPPGSAGGSAGGSAG [r3_454_JUSTAS]
[1]
  folding stability dG unfold: -0.324 ± 0.17 kcal/mol
[2]
  folding stability dG unfold: -0.0964 ± 0.12 kcal/mol
[3]
  folding stability dG unfold: -0.486 ± 0.33 kcal/mol

## SAWIPIDSPEEAKDIAKEIADNYGLEDTKVEPMPDNYVVVKLEFEMPNENGQKRKRNITIYYDPDGKFWSAG [r14_420_TrROS]
[1]
  folding stability dG unfold: 1.1 ± 0.099 kcal/mol
[2]
  folding stability dG unfold: 0.973 ± 0.04 kcal/mol
[3]
  folding stability dG unfold: 1.07 ± 0.083 kcal/mol

## SAGGSAGGSKKVTIVLSKEELRELFENLTPEQIAELLKKKFPKIKRVEVKEVDGKLVIEVEVESAGGSAGGS [r12_590_TrROS_Hall]
[1]
  folding stability dG unfold: 3.43 ± 0.17 kcal/mol
[2]
  folding stability dG unfold: 3.15 ± 0.26 kcal/mol
[3]
  folding stability dG unfold: 3.59 ± 0.1 kcal/mol

## SAGGSAGGSANGWVFMIHFNIEQEPVPAEELGMPPGDPGYEDMYVIKIKSISFFWVPAGDFSAGGSAGGSAG [r3_488_TrROS]
[1]
  folding stability dG unfold: 4.38 ± 0.085 kcal/mol
[2]
  folding stability dG unfold: 3.27 ± 0.09 kcal/mol
[3]
  folding stability dG unfold: 4.72 ± 0.12 kcal/mol

## SAGGSAGGSAGPMYIITHTSPNEPIEFIFPPDDAEEFLKKLKLPPNMNIKVEPIDPDDMKSAGGSAGGSAGG [r17_395_TrROS]
[1]
  folding stability dG unfold: 0.367 ± 0.18 kcal/mol
[2]
  folding stability dG unfold: 0.0355 ± 0.07 kcal/mol
[3]
  folding stability dG unfold: 0.715 ± 0.21 kcal/mol

## SAGGSAGGSAGGSMTTLNLTNMSPEEIEAALKANPGPVTVTTTLPGGEITTKTYTVPPGSAGGSAGGSAGGS [r10_514_JUSTAS]
[1]
  folding stability dG unfold: 0.423 ± 0.083 kcal/mol
[2]
  folding stability dG unfold: -0.0189 ± 0.047 kcal/mol
[3]
  folding stability dG unfold: 0.644 ± 0.12 kcal/mol

## GFDEAELKKLLEEKAAELEKKGYKVLKTSIEPVPDGTYGGKIGNKTITHPTPNGLTYSVSVYYEKVSPKKKS [r1_31_JUSTAS]
[1]
  folding stability dG unfold: 0.351 ± 0.16 kcal/mol
[2]
  folding stability dG unfold: 0.232 ± 0.13 kcal/mol
[3]
  folding stability dG unfold: 0.331 ± 0.25 kcal/mol

## SAGGSAFKIKIPEDLRGAPPGGKIEIEFPNGVRAEIEYKDGEWVIEVKHYGPNGKPVEEHEFRIKVSAGGSA [r15_558_TrROS]
[1]
  folding stability dG unfold: 1.28 ± 0.22 kcal/mol
[2]
  folding stability dG unfold: 1.47 ± 0.046 kcal/mol
[3]
  folding stability dG unfold: 0.94 ± 0.18 kcal/mol

## SAGGSAPVKLVVVYDEKTGEYRILAETPEGPVVFPFPRELFENIPLEDIAKLLNLEITEAVIVPNPSAGGSA [r15_801_TrMRF]
[1]
  folding stability dG unfold: 3.38 ± 0.13 kcal/mol
[2]
  folding stability dG unfold: 2.63 ± 0.086 kcal/mol
[3]
  folding stability dG unfold: 3.67 ± 0.13 kcal/mol

## SAGGKEIYKVNKKDFKKILDYLKKKKNAKITIIIKNKPIEIPIKDLEENYKKIKGKPNEPFYLEIEYSAGGS [r16_377_TrMRF]
[1]
  folding stability dG unfold: 2.14 ± 0.077 kcal/mol
[2]
  folding stability dG unfold: 1.75 ± 0.087 kcal/mol
[3]
  folding stability dG unfold: 2.28 ± 0.034 kcal/mol

## APKPPVLVVEVVVLFPKEDPEVRELTVEEIAELAAEELTAHPDFKPVKVEVLSAEEHPDGYYTVTLKVTHVS [r1_484_TrMRF]
[1]
  folding stability dG unfold: 2.42 ± 0.1 kcal/mol
[2]
  folding stability dG unfold: 2.51 ± 0.15 kcal/mol
[3]
  folding stability dG unfold: 2.4 ± 0.036 kcal/mol

## SAGMVKTEPDPNSDIVRRTFTVQVPVRIPPGEWRELTIEVPFDEVYGPGGVPVDPVSEEEIEAAIKALLSAG [r5_239_JUSTAS]
[1]
  folding stability dG unfold: 1.07 ± 0.096 kcal/mol
[2]
  folding stability dG unfold: 0.966 ± 0.037 kcal/mol
[3]
  folding stability dG unfold: 1.15 ± 0.087 kcal/mol

## SAGGSAGGSAMLVALVRVPGTDKPVVARLPREIGREAAEELLREAFPDAEVLEIVEVPEEELSAGGSAGGSA [r18_242_TrMRF]
[1]
  folding stability dG unfold: 1.42 ± 0.031 kcal/mol
[2]
  folding stability dG unfold: 0.447 ± 0.031 kcal/mol
[3]
  folding stability dG unfold: 1.712 ± 0.012 kcal/mol

## SAGGSAGGSAGKNMVEIEMMFVLPDGWFIKTSLRINPDKPGRIHEVEIEIRKIPPNDEQISAGGSAGGSAGG [r17_299_TrROS]
[1]
  folding stability dG unfold: 4.06 ± 0.19 kcal/mol
[2]
  folding stability dG unfold: 3.51 ± 0.24 kcal/mol
[3]
  folding stability dG unfold: 4.31 ± 0.17 kcal/mol

## SAGGSAGGSAKPEAVAPAVFTLDGVPYLVPVRVLEAGLSPDQKLLVLGTLPNGEPFLAVFDASAGGSAGGSA [r18_54_TrMRF]
[1]
  folding stability dG unfold: 1.27 ± 0.12 kcal/mol
[2]
  folding stability dG unfold: 0.744 ± 0.058 kcal/mol
[3]
  folding stability dG unfold: 1.57 ± 0.082 kcal/mol

## SEKRMEVEIKIPITMVVPKEMFEPDPDNGRYRFPDNGKPIRPNQVHPMPIEIKGPMPPGDAQKLLKDLLKSA [r9_165_TrROS]
[1]
  folding stability dG unfold: -0.203 ± 0.16 kcal/mol
[2]
  folding stability dG unfold: -0.347 ± 0.1 kcal/mol
[3]
  folding stability dG unfold: -0.119 ± 0.11 kcal/mol

## SAGGSAGGENNIEVYYVEVKVPDPSIPLSVVLEKLPLPPEFLTVTPVEVKPPDGTVLIAIYRDSSAGGSAGG [r6_955_TrMRF]
[1]
  folding stability dG unfold: 0.409 ± 0.089 kcal/mol
[2]
  folding stability dG unfold: 0.516 ± 0.02 kcal/mol
[3]
  folding stability dG unfold: -0.0815 ± 0.14 kcal/mol

## SAGGSAGGSAGGAVTTNKDVPLPGPFSIGTVTVSPPDPATPVVTFNSYEGNGPVTLTVPVSAGGSAGGSAGG [r11_1013_JUSTAS]
[1]
  folding stability dG unfold: 0.921 ± 0.04 kcal/mol
[2]
  folding stability dG unfold: 1.24 ± 0.015 kcal/mol
[3]
  folding stability dG unfold: 0.321 ± 0.11 kcal/mol

## SAGGSAGGSAGGKVIDSEEFRNNFPSGGVLVDNNGNLYLVGNNYPIDPNQPFLYVSPDEISAGGSAGGSAGG [r7_507_TrMRF]
[1]
  folding stability dG unfold: 1.23 ± 0.22 kcal/mol
[2]
  folding stability dG unfold: 0.959 ± 0.086 kcal/mol
[3]
  folding stability dG unfold: 1.56 ± 0.17 kcal/mol

## SAGGSAGGSAGGKIVIELPKELEGLTAEELAELLKKEFGEKGLKVTVVEKDGKLYLVIDSAGGSAGGSAGGS [r10_579_TrROS_Hall]
[1]
  folding stability dG unfold: 3.5 ± 0.24 kcal/mol
[2]
  folding stability dG unfold: 3.43 ± 0.25 kcal/mol
[3]
  folding stability dG unfold: 3.34 ± 0.15 kcal/mol
